Biological target: zebrafish procaspase-3b (CP-C117S) (zebrafish (Danio rerio))
Assay: SEC; Superdex75 Increase 10/300GL, 25 uM protein, 100 ul loaded, dialysed ~16 h at 25°C; citrate buffer pH 5, 6 and 6.5, phosphate buffer pH 7.5 and 8; column standardised with LMW calibration kit

“zebrafish procaspase-3b (CP-C117S) (enzyme)” was tested, and the stoichiometry N was 2.

Source: PMC9208311
